Measurements as given in PMC1282572, “Avidin related protein 2 shows unique structural and functional features among the avidin protein family” (BMC Biotechnology, 2005).

B1: Avidin related protein 2 (AVR2), produced in insect cells (natural protein, chicken, UniProt P56732 25-150, looked up)
chain: ARKCSLTGEWDNDLGSIMTIGAVNDNGEFDGTYITAVADNPGNITLSPLLGIQHKRASQPTFGFTVHWNFSESTSVFVGQCFVDRSGKEVLKTKWLQRLAVDDISDDWIATRVGNNDFTRQHTVEE
modifications: glycosylated (two potential glycosylation sites; both utilized to some extent)
notes: avidin related protein 2 (AVR2), chicken; The crystal structure PDB 1WBI is of the E. coli form AVR2-b
B2: AVR2(I109K) (natural protein, chicken, UniProt P56732 25-150, looked up)
chain: ARKCSLTGEWDNDLGSIMTIGAVNDNGEFDGTYITAVADNPGNITLSPLLGIQHKRASQPTFGFTVHWNFSESTSVFVGQCFVDRSGKEVLKTKWLQRLAVDDISDDWKATRVGNNDFTRQHTVEE
notes: avidin related protein 2 (AVR2), chicken, with I109K
B3: AVR4 (carries C122S), produced in insect cells (natural protein, chicken, UniProt P56734 25-150, looked up)
chain: ARKCSLTGKWTNNLGSIMTIRAVNSRGEFTGTYLTAVADNPGNITLSPLLGIQHKRASQPTFGFTVHWNFSESTTVFTGQCFIDRNGKEVLKTMWLLRSSVNDISYDWKATRVGYNNFTRLSTVEE
notes: avidin related protein 4 (identical to AVR5), chicken, with C122S; also called AVR5 (AVR4 is identical to AVR5)
B4: AVR4(K109I) (also carries C122S), produced in insect cells (natural protein, chicken, UniProt P56734 25-150, looked up)
chain: ARKCSLTGKWTNNLGSIMTIRAVNSRGEFTGTYLTAVADNPGNITLSPLLGIQHKRASQPTFGFTVHWNFSESTTVFTGQCFIDRNGKEVLKTMWLLRSSVNDISYDWIATRVGYNNFTRLSTVEE
notes: avidin related protein 4 (identical to AVR5), chicken, with K109I and C122S; An E. coli form, AVR4(K109I)-b, was also made
B5: AVR6(C58S), produced in E. coli (natural protein, chicken)
chain: QTVARKCSLTGEWDNNLGSIMTIGAVNDNGEFNGTYITAVADNPGNIKLSPLLGIQHKRASQPTFGFTVHWNFSESTSVFVGQCFVDRSGKEVLKTKWLQRLAVDDISDDWKATRVGYNNFTRQRTVEE
notes: checked by ESI-MS on AVR2-b only; avidin related protein 6 (AVR6), chicken, with C58S; also called AVR6-b
B6: AVR2-b (AVR2 produced in E. coli) (natural protein, chicken)
chain: QTVARKCSLTGEWDNDLGSIMTIGAVNDNGEFDGTYITAVADNPGNITLSPLLGIQHKRASQPTFGFTVHWNFSESTSVFVGQCFVDRSGKEVLKTKWLQRLAVDDISDDWIATRVGNNDFTRQHTVEE
notes: three additional residues left at the N-terminus after cleavage of the bacterial OmpA signal peptide; avidin related protein 2 (AVR2), chicken; expected Mr of the product 14307.8 Da; Not glycosylated (bacterial expression); Crystallised in complex with D-biotin

Target: the molecule itself
Assay: SEC; FPLC gel filtration, Superdex HR 10/30 column, 50 mM NaCO3 (pH 11.0), 150 mM NaCl; calibrated with IgG, BSA and ovalbumin; oligomeric state (tetramer)
For B1, the “stoichiometry N” value was 4.
B2 was tested, and the “stoichiometry N” value was 4.
In the case of B3, the “stoichiometry N” value is reported as 4.
With B4 the “stoichiometry N” value was 4.
In the case of B5, the “stoichiometry N” value is reported as 4.
With B6 the “stoichiometry N” value was 4.
